From paper PMC6122992

Biological target: rhodamine-labeled cyclic β-hairpin peptide (human)
Test: fluorescence polarisation

Kd [µM] | Substance
3.5 | recombinant Ssa1 (from UniProt P10591 1-642) (natural protein)
46.8 | recombinant Ydj1 (from UniProt P25491 1-409) (natural protein)
